Assay results from patent US20230183352A1 (published 2023).
Where a chain is given by its changes, count along the chain named. Where two headings read alike, the source gives them in different places.

Key:
[1] = target: T1, Claudin 18.2 (CLDN18.2), expressed on CHOS-CLDN 18.2 / HEK293-CLDN 18.2 / HCC827-CLDN 18.2 cells (human, UniProt P56856-2 1-261); experiment: FACS, CHOS-CLDN18.2 cells, 1.250 µg/ml
T1 construct: whole, on cells; The species is not repeated for the CHOS-CLDN 18.2 cells; also called claudin-18A2
Procedure: (§1) The initial concentration of the antibody was 20 μg/ml, it was diluted at 1:4, and incubated at 4° C. for 60 min.

[2] = target: T1, Claudin 18.2 (CLDN18.2), expressed on …; experiment: FACS, CHOS-CLDN18.2 cells, 5 µg/ml
Procedure: as §1

[3] = target: T1, Claudin 18.2 (CLDN18.2), expressed on …; experiment: FACS, CHOS-CLDN18.2 cells, 10 µg/ml
Procedure: (§2) The initial concentration of the antibody was 20 μg/mkit was diluted at 1:4, and incubated at 4° C. for 60 min.

[4] = target: T1, Claudin 18.2 (CLDN18.2), expressed on …; experiment: FACS, CHOS-CLDN18.2 cells, 20 µg/ml
Procedure: as §1

[5] = target: T1, Claudin 18.2 (CLDN18.2), expressed on …; experiment: FACS, MFI on CHOS-CLDN18.2 over MFI on CHOS-CLDN18.1, 10 µg/ml
Procedure: as §2

[6] = target: T1, Claudin 18.2 (CLDN18.2), expressed on …; experiment: FACS, CHOS-CLDN18.2 cells, 0.020 µg/ml
Procedure: as §1

[7] = target: T1, Claudin 18.2 (CLDN18.2), expressed on …; experiment: FACS, CHOS-CLDN18.2 cells, 0.005 µg/ml
Procedure: as §1

[8] = target: T1, Claudin 18.2 (CLDN18.2), expressed on …; experiment: FACS, CHOS-CLDN18.2 cells
Procedure: as §1

[9] = target: T1, Claudin 18.2 (CLDN18.2), expressed on …; experiment: FACS, CHOS-CLDN18.2 cells, 0 µg/ml (background)
Procedure: as §1

[10] = target: T1, Claudin 18.2 (CLDN18.2), expressed on …; experiment: FACS, CHOS-CLDN18.2 cells, 0.078 µg/ml
Procedure: as §1

[11] = target: T1, Claudin 18.2 (CLDN18.2), expressed on …; experiment: FACS, CHOS-CLDN18.2 cells, 0.313 µg/ml
Procedure: as §1

[12] = target: T1, Claudin 18.2 (CLDN18.2), expressed on …; experiment: FACS, CHOS-CLDN18.2 cells, 0.005 µg/ml; remark: listed apart in the source
Procedure: as §1

[13] = target: T1, Claudin 18.2 (CLDN18.2), expressed on …; experiment: FACS, CHOS-CLDN18.2 cells, 20 µg/ml; remark: listed apart in the source
Procedure: as §1

[14] = target: T1, Claudin 18.2 (CLDN18.2), expressed on …; experiment: cell-based or functional assay
[15] = target: T1, Claudin 18.2 (CLDN18.2), expressed on …; experiment: FACS, CHOS-CLDN18.2 cells, 5 µg/ml; remark: listed apart in the source
Procedure: as §1

[16] = target: T1, Claudin 18.2 (CLDN18.2), expressed on …; experiment: FACS, CHOS-CLDN18.2 cells, 0.020 µg/ml; remark: listed apart in the source
Procedure: as §1

[17] = target: T1, Claudin 18.2 (CLDN18.2), expressed on …; experiment: FACS, CHOS-CLDN18.2 cells, 0.078 µg/ml; remark: listed apart in the source
Procedure: as §1

[18] = target: T1, Claudin 18.2 (CLDN18.2), expressed on …; experiment: FACS, CHOS-CLDN18.2 cells, 1.250 µg/ml; remark: listed apart in the source
Procedure: as §1

[19] = target: T1, Claudin 18.2 (CLDN18.2), expressed on …; experiment: FACS, CHOS-CLDN18.2 cells, 0.313 µg/ml; remark: listed apart in the source
Procedure: as §1

[20] = target: T1, Claudin 18.2 (CLDN18.2), expressed on …; experiment: FACS, CHOS-CLDN18.2 cells; remark: listed apart in the source
Procedure: as §1

[21] = target: T1, Claudin 18.2 (CLDN18.2), expressed on …; experiment: FACS, CHOS-CLDN18.2 cells, 0 µg/ml (background); remark: listed apart in the source
Procedure: as §1

B1: QP201202 (antibody, human IgG1, V domains shown)
VH: EVQLQQSGPELVKPGASVKMSCKASGYTFTNYFVHWVKQKPGQGLEWIGYINPYNDDTKYNEKFKGKATLTSDKSSSTAYMDLSSLTSEDSAVYYCLSLRFFAYWGQGTLVTVSA
VL: DIVMTQSPSSLTVTAGEKVTMSCKSSQSLLNSGNQKNYLTWYQQKPGQAPKLLIYWASTRESGVPDRFIGSGSGTDFTLTISHVQAEDLAVYFCQNDYSYPLTFGAGTNLELK
notes: Chimeric; also called 44C6
B1 gave an FACS reading [1] of 92700, an FACS reading [2] of 81100 and an MFI [3] of 439000. For the same binder, the FACS reading [4] was 113000, the “CLDN18.2/CLDN18.1 (MFI ratio)” value [5] was 381 and the FACS reading [6] was 4770. The FACS reading [7] was 2260, the EC50 [8] was 0.417 µg/mL and the max [8] was 113000. It also gave an FACS reading [9] of 732, an FACS reading [10] of 12600 and an FACS reading [11] of 38000.

B2: QP14451440 (antibody, human IgG1, kappa, V domains shown)
VH: QVQLVQSGAEVKKPGASVKVSCKASGYAFSSYWMNWVRQAPGQGLEWIGQIYPGNGDTTYNGKFKGRVTMTADKSTSTVYMELSSLRSEDTAVYFCARFVKGNAMDYWGQGTLVTVSS
VL: DIVMTQSPDSLAVSLGERATISCKSSQSLLNSGNQKNYLTWYQQKPGQPPKLLIYWASTRESGVPDRFSGSGSGTDFTLTISSLQAEDVAVYYCQNAYSYPFTFGQGTKLEIKR
notes: Humanized from QP192193; also called QP14401445
B2 gave an FACS reading [12] of 4930, an MFI [3] of 620000 and an FACS reading [13] of 169000. The “EC50 of killing, ADCC (PBMC, HEK293-CLDN18.2 cells)” value [14] was 0.0082 µg/mL, the “Killing percentage, ADCC (PBMC, HEK293-CLDN18.2 cells), 0 µg/ml” value [14] was 5.43% and the “Killing percentage, ADCC (PBMC, HEK293-CLDN18.2 cells), 0.0001024 µg/ml” value [14] was -1.11%. The “Killing percentage, ADCC (PBMC, HEK293-CLDN18.2 cells), 0.000512 µg/ml” value [14] was 10%, the “Killing percentage, ADCC (PBMC, HEK293-CLDN18.2 cells), 0.00256 µg/ml” value [14] was 10.8% and the “Killing percentage, ADCC (PBMC, HEK293-CLDN18.2 cells), 0.0128 µg/ml” value [14] was 28.5%. The “Killing percentage, ADCC (PBMC, HEK293-CLDN18.2 cells), 0.064 µg/ml” value [14] was 42.1%, the “Killing percentage, ADCC (PBMC, HEK293-CLDN18.2 cells), 0.32 µg/ml” value [14] was 43.7% and the “Killing percentage, ADCC (PBMC, HEK293-CLDN18.2 cells), 1.6 µg/ml” value [14] was 37.8%. For the same binder, the “Killing percentage, ADCC (PBMC, HEK293-CLDN18.2 cells), 8 µg/ml” value [14] was 42.7%, the “Killing percentage, ADCC (PBMC, HEK293-CLDN18.2 cells), 40 µg/ml” value [14] was 47.8% and the FACS reading [15] was 139000. For the same binder, the “CLDN18.2/CLDN18.1 (MFI ratio)” value [5] was 470, the FACS reading [16] was 13800 and the FACS reading [17] was 35400. It also gave an FACS reading [18] of 123000, an FACS reading [19] of 104000 and an EC50 [20] of 0.223 µg/mL. It also gave a max [20] of 169000 and an FACS reading [21] of 732.

B3: QP14581454 (antibody, human IgG1, kappa, V domains shown)
VH: QVQLVQSGAEVKKPGASVKVSCKASGYTFTNYFVHWVKQAPGQGLEWIGYINPYNDDTKYNEKFKGKATLTRDTSTSTVYMELSSLRSEDTAVYYCLSLRFFAYWGQGTLVTVSS
VL: B2 VL with P49A, L84V, Y93F, A97D, F102L, Q106G, L110V
notes: Humanized from QP201202
In the case of B3, the FACS reading [1] is reported as 56100, the FACS reading [2] is reported as 73700 and the MFI [3] is reported as 502000. The FACS reading [4] was 58600, the “CLDN18.2/CLDN18.1 (MFI ratio)” value [5] was 506 and the FACS reading [6] was 4470. It also gave an FACS reading [7] of 2370, an EC50 [8] of 0.363 µg/mL and a max [8] of 73700. It also gave an FACS reading [9] of 732, an FACS reading [10] of 11500 and an FACS reading [11] of 30800.

B4: QP14561454 (antibody, human IgG1, kappa, V domains shown)
VH: B3 VH with K38R, I48M, K67R, A68V, L70M
VL: B2 VL with P49A, L84V, Y93F, A97D, F102L, Q106G, L110V
notes: Humanized from QP201202
B4 gave an FACS reading [1] of 107000, an FACS reading [2] of 114000 and an MFI [3] of 477000. The FACS reading [4] was 146000, the “CLDN18.2/CLDN18.1 (MFI ratio)” value [5] was 430 and the FACS reading [6] was 6390. It also gave an FACS reading [7] of 2470, an EC50 [8] of 0.573 µg/mL and a max [8] of 146000. It also gave an FACS reading [9] of 732, an FACS reading [10] of 13400 and an FACS reading [11] of 44800.

B5: QP14581453 (antibody, human IgG1, kappa, V domains shown)
VH: B3 VH
VL: B2 VL with P49A, A97D, F102L, Q106G, L110V
notes: Humanized from QP201202
B5 showed an FACS reading [1] of 91400, an FACS reading [2] of 83000 and an MFI [3] of 554000. For the same binder, the FACS reading [4] was 104000, the “CLDN18.2/CLDN18.1 (MFI ratio)” value [5] was 581 and the FACS reading [6] was 5920. For the same binder, the FACS reading [7] was 2420, the EC50 [8] was 0.425 µg/mL and the max [8] was 104000. For the same binder, the FACS reading [9] was 732, the FACS reading [10] was 13600 and the FACS reading [11] was 33300.
